The values below come from patent US20240269276A1 (HARBOUR BIOMED SHANGHAI, published 2024).

Positions count from the first letter of the chain named. Numbers in names are those of the source. Read-outs that look alike come from different tables or passages of the source.

Assay [1] concerns the target T1, cynomolgus monkey PD-L1 on CHO-K1 cells overexpressing cynomolgus monkey PD-L1 (cynomolgus monkey, UniProt G7PSE7 19-290).
T1 construct: also called CHO-K1/cynoPD-L1; GenScript M00573
Kind of assay: flow cytometry on CHO-K1 cells overexpressing cynomolgus monkey PD-L1 (CHO-K1/cynoPD-L1). How it is done:
(§1) In the example, in order to study the in vitro binding activity of the PD-L1 antigen-binding protein to human/cynomolgus monkey PD-L1, cell-level binding experiments were performed using CHO-K1 cell strains overexpressing human PD-L1 (CHO-K1/hPD-L1, GenScript, M00543) or CHO-K1 cell strains overexpressing cynomolgus monkey PD-L1 (CHO-K1/cynoPD-L1, GenScript, M00573). Briefly, the PD-L1 cells were digested and resuspended in an F-12K complete medium, and the cell density was adjusted to 1×10⁶ cells/mL. The cells were seeded in a 96-well V-bottom plate (Corning, 3894) at 100 μL/well, followed by the addition of the test antigen-binding proteins serially diluted 5-fold with concentrations that were twice the final concentrations at 100 μL/well. The mixtures were well mixed. The highest final concentration of the antigen-binding proteins was 100 nM. A total of 8 concentrations were set. An isotype antibody hIgG1 iso was used as a control. The cells were incubated away from light at 4° C. for 1 h. Thereafter, the cells in each well were rinsed twice with 100 μL of pre-cooled PBS, and centrifuged at 500 g at 4° C. for 5 min, and then the supernatant was discarded. Then 100 μL of a fluorescent secondary antibody (goat anti-human IgG (H+L) secondary antibody, Alexa Fluor 488 conjugate, Invitrogen, A11013, diluted at the ratio of 1:1000) was added to each well. The plate was incubated away from light at 4° C. for 30 min. The cells in each well were then rinsed twice with 200 μL of pre-cooled PBS and centrifuged at 500 g at 4° C. for 5 min, and then the supernatant was discarded. Finally, a pre-cooled PBS was added at 200 μL/well to resuspend the cells. Fluorescence signal values were read using a BD FACS CANTOII. Fluorescence signal values were read using a flow cytometer BD FACS CANTOII or FACS ACEA, and the data were processed and analyzed using FlowJo v10 (FlowJo, LLC) software. The data were processed and analyzed by plotting using GraphPad Prism 8 software, and binding curves, EC50 values and other parameters were acquired through four-parameter nonlinear fitting.
Background: A flow cytometer gives signals particle by particle.

Assay [2] has as its target T2, human PD-L1 on CHO-K1 cells overexpressing human PD-L1 (human, UniProt Q9NZQ7 19-290).
T2 construct: whole, on cells; also called CHO-K1/hPD-L1; CHO-K1-hPD-L1
Put plainly: flow cytometry on CHO-K1 cells overexpressing human PD-L1 (CHO-K1/hPD-L1). How it is done: as §1

Assay [3] concerns the target T2, human PD-L1 on CHO-K1 cells …. The description is as above. How it is done:
as §1
This is another data set of the same source.

Assay [4] addresses T3, human PD-L1 protein with histidine tag (ACROBiosystems #PD-1-H5258) (human, UniProt Q9NZQ7 19-238).
T3 construct: Bought protein; also called His PD-L1; human PD-L1 proteins; not shown: histidine tag
Kind of assay: BLI (Octet Red96e); His-tagged human PD-L1 captured on HIS1K sensor, antibody at 60 nM; 1:1 fit. How it is done: In this example, affinity determination was performed on the affinity-matured mutants of PR002082 using an Octet Red96e instrument. […] The binding kinetics between the antigen and the antibody was analyzed by the biolayer interferometry (BLI) technique using an Octet molecular interaction analyzer (ForteBio, model: Octet Red96e).
When the affinity of the antigen for the antibody was determined, the rotation speed of the sensor was set at 1000 rpm/min. The 2 HIS1K sensors placed in a column were first equilibrated for 10 min in test buffer, then His PD-L1 was captured with the HIS1K sensor at a capture height of 0.9-1.1 nm, then the HIS1K sensor was equilibrated for 2 min in the test buffer, then the HIS1K sensor was bound to the antigen-binding protein (60 nM and 0 nM) for 3 min, and finally the mixture was dissociated for 15 min. The HIS1K sensor was immersed in a 10 mM glycine solution (pH 1.5) for regeneration to elute the proteins bound to the sensor.
When data analysis was performed using Octet Data Analysis software (Fortebio, version 11.0), the reference signals were subtracted by a single reference mode (reference well), the data were fitted by a “1:1 Local/full fitting” method, and the kinetic parameters of the binding of the antigen to the antibody were calculated to obtain Kₒₙ (1/Ms) values, Kdis (1/s) values and KD (M) values.
On the technique in general: Biolayer interferometry detects binding as a change in optical thickness at a sensor tip.

The target in assay [5] is T2, human PD-L1 on CHO-K1 cells …. Kind of assay: flow cytometry on CHO-K1 cells overexpressing human PD-L1 (CHO-K1/hPD-L1) [continued) F]. How it is done:
as §1

Assay [6] addresses T1, cynomolgus monkey PD-L1 on CHO-K1 cells …. Kind of assay: flow cytometry on CHO-K1 cells overexpressing cynomolgus monkey PD-L1 (CHO-K1/cynoPD-L1). How it is done: as §1
The source holds these as a separate data set.

In assay [7] the target is T2, human PD-L1 on CHO-K1 cells …. Kind of assay: flow cytometry on CHO-K1 cells overexpressing human PD-L1 (CHO-K1/hPD-L1) [continued) D]. How it is done: as §1
Assay [8] shares this target. Kind of assay: flow cytometry on CHO-K1 cells overexpressing human PD-L1 (CHO-K1/hPD-L1) [continued) E]. How it is done: as §1

T2 sequence (Q9NZQ7 19-290): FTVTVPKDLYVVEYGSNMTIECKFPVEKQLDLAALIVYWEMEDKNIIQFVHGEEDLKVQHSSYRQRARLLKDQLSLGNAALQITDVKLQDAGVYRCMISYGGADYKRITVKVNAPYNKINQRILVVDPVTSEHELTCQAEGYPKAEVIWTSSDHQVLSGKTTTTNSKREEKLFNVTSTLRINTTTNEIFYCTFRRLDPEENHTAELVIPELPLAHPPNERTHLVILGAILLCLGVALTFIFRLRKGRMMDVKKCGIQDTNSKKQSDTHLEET
T1 sequence (G7PSE7 entry or part of it limits assumed): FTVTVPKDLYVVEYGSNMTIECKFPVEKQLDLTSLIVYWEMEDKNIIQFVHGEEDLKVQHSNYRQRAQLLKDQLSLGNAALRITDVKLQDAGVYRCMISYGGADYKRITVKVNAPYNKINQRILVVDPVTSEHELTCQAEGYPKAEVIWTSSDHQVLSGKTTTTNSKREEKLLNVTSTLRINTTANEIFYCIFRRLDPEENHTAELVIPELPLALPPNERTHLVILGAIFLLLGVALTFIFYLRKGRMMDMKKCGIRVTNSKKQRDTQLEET
T3 sequence (Q9NZQ7 19-238 limits assumed): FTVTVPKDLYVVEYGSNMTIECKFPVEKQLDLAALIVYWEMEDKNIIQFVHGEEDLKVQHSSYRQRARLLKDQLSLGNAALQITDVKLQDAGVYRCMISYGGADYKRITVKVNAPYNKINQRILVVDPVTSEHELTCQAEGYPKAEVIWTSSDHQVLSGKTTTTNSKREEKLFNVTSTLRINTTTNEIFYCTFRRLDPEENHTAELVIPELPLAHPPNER

B1: PR000960 (antibody, human IgG1, V domains shown)
VH: QVQLVESGGGVVQPGMSLRLSCAASGFNFSNYGMYWVRQAPGKGQEWVAIIWYDGTKKHYADSVKGRFTISRDNSKNTLYLEMNSLRVEDTAVYYCAKNRAIFGVVPDASDIRGQGTMVTVSS
notes: Heavy-chain-only antibody (HCAb): human VH fused to human IgG1 Fc; no light chain; also called anti-PD-L1 HCAb antibody
Take B1: the EC50 (in general, the concentration that produces a half-maximal response) in assay [1] is 0.421 nM; in assay [2], 0.79 nM; in assay [3], 3 nM. Moreover, the results for the “Maximum MFI” value in assay [1], in assay [2] and in assay [3] were 8440 MFI, 23700 MFI and 3080 MFI, respectively.

B2: PR001058 (antibody, human IgG1, V domains shown)
VH: B1 VH with Q1E, M16R, N28T, N31S
notes: as for B1
As to B2, the EC50 came out at 0.4 nM in assay [1] and 3.33 nM in assay [3]. Moreover, the “Maximum MFI” value in assay [1] came out at 8480 MFI.

B3: PR006248 (antibody, human IgG1, V domains shown)
VH: B1 VH with N28D, N31S, I50S, W52R, D54T, K57E, I102L, V106I, A109D
notes: The HC entry is used
With B3, in assay [4], the affinity, expressed as Kd, was 0.634 nM; the koff (usually the rate constant with which the complex falls apart) was found to be 0.000115 s⁻¹; the kon (usually a measure of how fast the partners come together) was found to be 182000 M⁻¹ s⁻¹. Also, in assay [5], the response was half-maximal at 0.606 nM (EC50) and the “Maximum MFI” value came out at 404000 MFI. For the same molecule, in assay [6], the midpoint of the response, the EC50, lay at 0.717 nM and the “Maximum MFI” value turned out to be 11500 MFI.

B4: PR001065 (antibody, human IgG1, V domains shown)
VH: B1 VH with Q1E, M16R, N31S
notes: as for B1
As for B4, in assay [1], the EC50 was found to be 0.7 nM and the “Maximum MFI” value stood at 8780 MFI. Besides, in assay [3], the EC50 turned out to be 2.67 nM and the “Maximum MFI” value was found to be 3000 MFI.

B5: PR002079 (antibody, human IgG1, V domains shown)
VH: B1 VH with N28T
notes: HCAb; also called PTM variant of PR000960 (N28T)
As for B5, the EC50 in assay [1] worked out at 0.376 nM. Also, in assay [2], the EC50 turned out to be 0.83 nM and the “Maximum MFI” value is 24600 MFI.

B6: PR005878 (antibody, human IgG1, V domains shown)
VH: B1 VH with N28T, N31S, I50S, W52R, D54T, K57E, I102L, V106I, A109D
notes: The HC entry is used
Regarding B6, in assay [4], the Kd – broadly, a measure of binding affinity in units of concentration – came out at 0.671 nM; the koff was 0.000121 s⁻¹; the kon turned out to be 180000 M⁻¹ s⁻¹. In addition, in assay [7], the EC50 came to 0.944 nM and the “Maximum MFI” value came to 379000 MFI. For the same molecule, in assay [5], the EC50 is 1.08 nM and the “Maximum MFI” value was 419000 MFI. Also, in assay [6], the EC50 worked out at 0.894 nM and the “Maximum MFI” value is 11700 MFI.

B7: PR005875 (antibody, human IgG1, V domains shown)
VH: B1 VH with N28T, N31S, I50S, W52R, D54T, K57E, I102L, V106I
notes: The HC entry is used
In assay [4], B7 displayed a Kd of 1.04 nM, a koff of 0.000179 s⁻¹ and a kon of 172000 M⁻¹ s⁻¹. Further, in assay [7], the EC50 turned out to be 0.974 nM and the “Maximum MFI” value turned out to be 372000 MFI. In addition, in assay [6], the response was half-maximal at 0.774 nM (EC50) and the “Maximum MFI” value is 11500 MFI.

B8: PR006246 (antibody, human IgG1, V domains shown)
VH: B1 VH with N28D, N31S, I50S, W52R, D54T, K57E, V106I, A109D
notes: The HC entry is used
With B8, in assay [4], the Kd amounted to 0.546 nM, the koff amounted to 0.000164 s⁻¹ and the kon stood at 301000 M⁻¹ s⁻¹. In assay [5], a half-maximal effect (EC50) was put at 0.764 nM and the “Maximum MFI” value came out at 396000 MFI. In assay [6], the EC50 stood at 0.736 nM and the “Maximum MFI” value worked out at 11600 MFI.

B9: PR005263 (antibody, human IgG1, V domains shown)
VH: B1 VH with N28T, N31S, I50S, W52R, D54T, K57E
notes: The HC entry is used
In assay [4], B9 returned a Kd of 1.94 nM, a koff of 0.000227 s⁻¹ and a kon of 117000 M⁻¹ s⁻¹. Further, in assay [8], the EC50 is 0.914 nM and the “Maximum MFI” value came out at 363000 MFI. Also, in assay [6], the EC50 worked out at 1.19 nM and the “Maximum MFI” value is 11700 MFI.

B10: PR005872 (antibody, human IgG1, V domains shown)
VH: B1 VH with N28T, N31S, I50S, W52R, D54T, K57E, V106I, A109D
notes: The HC entry is used
In assay [4], B10 returned a Kd of 0.861 nM, a koff of 0.000187 s⁻¹ and a kon of 218000 M⁻¹ s⁻¹. Besides, in assay [7], the midpoint of the response, the EC50, lay at 0.787 nM and the “Maximum MFI” value was determined as 385000 MFI. Further, in assay [6], the EC50 came out at 0.733 nM and the “Maximum MFI” value amounted to 11800 MFI.

B11: PR001061 (antibody, human IgG1, V domains shown)
VH: B1 VH with Q1E, V5L, M16R, N31S, T56S, K57R, V88A, V93M
notes: as for B1
Turning to B11, in assay [1], the EC50 came out at 0.4 nM and the “Maximum MFI” value came out at 8840 MFI. For the same molecule, in assay [3], the response was half-maximal at 2.31 nM (EC50) and the “Maximum MFI” value amounted to 3090 MFI.
